Experimental data: patent US20180134780A1 (Hoffmann-La Roche, published 2018)

Biological target: T1, Human angiopoietin-2 (ANG-2) (human, UniProt O15123 19-496, limits assumed)
T1 construct: Bought (R&D Systems Cat. No. 623-AN) or produced in house; also called ANGPT2; huAngiopoietin-2
T1 sequence: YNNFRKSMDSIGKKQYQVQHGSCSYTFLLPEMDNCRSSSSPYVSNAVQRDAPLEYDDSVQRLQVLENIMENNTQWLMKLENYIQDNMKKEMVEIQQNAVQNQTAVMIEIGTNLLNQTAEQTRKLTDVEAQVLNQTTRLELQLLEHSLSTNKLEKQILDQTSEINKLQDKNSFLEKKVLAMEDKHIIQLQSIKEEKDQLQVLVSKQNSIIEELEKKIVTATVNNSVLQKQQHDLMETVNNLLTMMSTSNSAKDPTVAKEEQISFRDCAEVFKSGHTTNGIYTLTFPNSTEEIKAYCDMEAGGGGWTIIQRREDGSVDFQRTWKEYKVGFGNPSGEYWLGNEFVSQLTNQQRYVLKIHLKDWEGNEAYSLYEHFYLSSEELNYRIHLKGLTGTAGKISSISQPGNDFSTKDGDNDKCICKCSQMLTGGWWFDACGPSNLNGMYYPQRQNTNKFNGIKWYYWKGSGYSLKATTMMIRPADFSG
Experiment: ANG2/Tie2 receptor interaction ELISA (Experiment A): antibody dilutions pre-incubated with 0.2 ug/ml huAngiopoietin-2, coated human Tie2, bound ANG-2 detected
Experimental: Blocking of human ANG-2/human Tie2 interaction was shown by receptor interaction ELISA. 384-well Maxisorp plates (Nunc) were coated with 0.5 μg/ml human Tie2 (R&D Systems, UK, Cat. No. 313-TI or in house produced material) for 2 h at room temperature and blocked with PBS supplemented with 0.2% Tween-20 and 2% BSA (Roche Diagnostics GmbH, DE) for 1 h at room temperature under shaking. In the meantime, Dilutions of purified antibodies in PBS were incubated together with 0.2 μg/ml huAngiopoietin-1/2 (R&D Systems #923-AN/CF, R&D Systems, UK, Cat. No. 623-AN or in house produced material) for 1 hour at RT. After washing a mixture of 0.5 μg/ml biotinylated anti-Angiopoietin-1/2 clone (R&D Systems #BAF923, BAM0981 R&D Systems, UK) and 1:3000 diluted streptavidin HRP (Roche Diagnostics GmbH, DE, Cat. No. 11089153001) was added for 1 h. Thereafter the plates were washed 6 times with PBST. Plates were developed with freshly prepared ABTS reagent (Roche Diagnostics GmbH, DE, buffer #204 530 001, tablets #11 112 422 001) for 30 minutes at RT. Absorbance was measured at 405 nm.

B1: <ANG-2>Ang2i_LC06 (antibody, V domains shown)
VH: not shown
VL: QPGLTQPPSVSVAPGQTARITCGGNNIGSKSVHWYQQKPGQAPVLVVYDDSDRPSGIPERFSGSNSGNTATLTISRVEAGDEADYYCQVWDSSSDHYVFGTGTKVTVLG
notes: also called anti-ANG2 antibody
Binder B1 has an IC50 of 100 pM.
